19 molecules from patent US20130243795A1 (Janssen / Centocor, published 2013) can be followed below.

Where a chain is given by its changes, count along the chain named. Where two headings read alike, the source gives them in different places.

Assay [1] has as its target T1, Human CD27 ECD, monomeric soluble (construct limits not stated) (human, UniProt P26842 20-191).
T1 construct: extracellular domain; target of the Biacore assays; also called monomeric soluble CD27; CD27-His
The assay is described as follows: Biacore SPR, purified mAb. On the technique in general: In SPR one partner is held on a chip, and binding of the other changes the refractive index at the surface.

Assay [2] addresses T2, Human CD27, full length on the cell surface (human, UniProt P26842 21-260). The assay is described as follows: cell-based or functional assay.
Assay [3] addresses T3, Human CD27 ECD truncated (ECD 1-121, cleavage site, His6) (human).
T3 construct: also called human CD27 ECD with His Tag; CD27-His
T3 chain: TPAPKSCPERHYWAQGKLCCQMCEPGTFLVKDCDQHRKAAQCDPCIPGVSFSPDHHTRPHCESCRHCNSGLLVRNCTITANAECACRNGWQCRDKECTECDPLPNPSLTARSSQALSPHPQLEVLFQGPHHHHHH
The assay is described as follows: ProteOn SPR, culture supernatants.

Assay [4] deals with T1, Human CD27 ECD, monomeric soluble …. The assay is described as follows: Biacore SPR, purified mAb. The source holds these as a separate data set.
In assay [5] the target is T2, Human CD27, full length on the cell …. The assay is described as follows: cell-based or functional assay. This is another data set of the same source.
For assay [6], the target named is T1, Human CD27 ECD, monomeric soluble …. The experiment in a line: Biacore SPR, purified mAb, CD27-His.
For assay [7], the target named is T3, Human CD27 ECD truncated (ECD 1-121, …). The assay is described as follows: ProteOn SPR, culture supernatants.
For assay [8] the target is unchanged. The assay is described as follows: ProteOn SPR, culture supernatants.
Assay [9] shares this target. The experiment in a line: ProteOn SPR, purified mAb, CD27-His.

T2 sequence (P26842 21-260 H233R): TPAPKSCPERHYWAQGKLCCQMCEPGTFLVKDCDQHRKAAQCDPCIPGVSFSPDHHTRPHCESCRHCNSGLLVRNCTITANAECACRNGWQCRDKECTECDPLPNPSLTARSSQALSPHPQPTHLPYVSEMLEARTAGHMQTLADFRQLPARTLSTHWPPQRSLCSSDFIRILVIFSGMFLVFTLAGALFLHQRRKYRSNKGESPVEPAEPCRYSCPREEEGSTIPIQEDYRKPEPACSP
T1 sequence (P26842 20-191): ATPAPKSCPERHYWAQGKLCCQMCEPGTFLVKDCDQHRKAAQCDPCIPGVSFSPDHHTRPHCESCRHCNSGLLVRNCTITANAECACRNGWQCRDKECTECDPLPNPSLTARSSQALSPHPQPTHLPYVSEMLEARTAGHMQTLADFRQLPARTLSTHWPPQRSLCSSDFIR

B1: M694 (antibody, V domains shown)
VH: QVQLVESGGGLVKPGGSLRLSCAASGFTFSSYGMSWIRQAPGKGLEWVSYIDEGGGQTIYPDSVKGRFTISRDNAKNSLYLQMNSLRAEDTAVYYCARHRGNPFDYWGQGTLVTVSS
VL: DIQMTQSPSSLSASVGDRVTITCRASKSVSEGRWSFMHWYQQKPGKAPKLLIYVASRLESGVPSRFSGSGSGTDFTFTISSLQPEDIATYYCQHSRELPWTFGQGTKVEIK
notes: also called single-gene DNA ID 694
Broadly, the Kd is a measure of binding affinity in units of concentration. By koff is commonly meant the rate constant with which the complex falls apart. A lower koff goes with slow dissociation. The term kon denotes the rate constant with which the complex forms. Lower therefore signals slower complex formation. With B1, in assay [1], binding was put at a Kd of 0.105 nM, the koff turned out to be 7.6e-05 s⁻¹ and the kon amounted to 480000 M⁻¹ s⁻¹. Also, the “NF-kB Assay IC50” value in assay [2] is 0.42 nM.

B2: M707 (antibody, V domains shown)
VH: B1 VH with Q1E, V5L, K13Q, G33T, I37V, Y50A, E53H, I59L, A75S, S78T
VL: B1 VL with E31H, G32V, V54L, R57N, F77L, I87F
notes: also called single-gene DNA ID 707
In [1], B2 had a Kd of 0.213 nM, a koff of 0.000124 s⁻¹ and a kon of 585000 M⁻¹ s⁻¹. Also, in assay [2], the “NF-kB Assay IC50” value was determined as 0.26 nM.

B3: M708 (antibody, V domains shown)
VH: EVQLLESGGGLVQPGGSLRLSCAASGFTFSSYTMSWVRQAPGKGLEWVSVIDHGGGSTHYPDSVKGRFTISRDNSKNTLYLQMNSLRAEDTAVYYCARHRGNPFDYWGQGTLVTVSS
VL: B1 VL with E31T, G32S, R33G, W34Y, A55G, E59D, S60Y, F77L, I87F
notes: also called single-gene DNA ID 708
In [1], B3 yielded a Kd of 0.35 nM, a koff of 0.000225 s⁻¹ and a kon of 643000 M⁻¹ s⁻¹. The “NF-kB Assay IC50” value in assay [2] turned out to be 0.26 nM.

B4: M596 (antibody, V domains shown)
VH: EVQLVQSGAEVKKPGESLKISCKGSGYAFSSSWMNWVRQMPGKGLEWMGRIYAGDGDTNYSPSFQGQVTISADKSISTAYLQWSSLKASDTAMYYCARSDYYGDYGFAYWGQGTLVTVSS
VL: DIVMTQSPDSLAVSLGERATINCKASQSVDYAGDSWMNWYQQKPGQPPKLLIYTASNLESGVPDRFSGSGSGTDFTLTISSLLAEDVAVYYCQQSNEDPYTFGQGTKLEIK
notes: IgG; subclass not restated (path 1 mAbs were human IgG1/kappa); also called H239/L257
Take B4: in assay [3], the Kd was 0.025 nM.

B5: M709 (antibody, V domains shown)
VH: B4 VH with G56A, N59A
VL: B4 VL with D34E, W36F, T54A, L83Q
notes: also called single-gene DNA ID 709
In assay [4], B5 displayed a Kd of 0.026 nM, a koff of 5.89e-05 s⁻¹ and a kon of 2.3e+06 M⁻¹ s⁻¹. In [5], the “NF-kB Assay IC50” value amounted to 0.272 nM.

B6: M711 (antibody, V domains shown)
VH: B4 VH with A53S, G56A, S61N, P62Q, S63K, Q65K
VL: DIQMTQSPSSLSASVGDRVTITCKASQSVDYAGESFMNWYQQKPGKAPKLLIYAASNLESGVPSRFSGSGSGTDFTLTISSLQPEDFATYYCQQSNEDPYTFGQGTKVEIK
notes: also called single-gene DNA ID 711
Consider B6, for which, in [4], binding was put at a Kd of 0.03 nM, the koff was determined as 5.82e-05 s⁻¹ and the kon came out at 1.97e+06 M⁻¹ s⁻¹. For the same molecule, the “NF-kB Assay IC50” value in assay [5] amounted to 0.258 nM.

B7: M678 (antibody, V domains shown)
VH: B4 VH with N59A
VL: B4 VL with W36F, T54A, L83Q
notes: IgG; subclass not restated; also called H259/L255
In assay [3], B7 gave a Kd of 0.053 nM.

B8: M706 (antibody, V domains shown)
VH: B4 VH with G56A, S61A
VL: B4 VL with D34E, W36F, T54A, L83Q
notes: IgG; subclass not restated; also called H272/L267
The molecule B8 registered a Kd in [3] of 0.013 nM.

B9: M680 (antibody, V domains shown)
VH: B4 VH with S61A
VL: B4 VL with W36F, T54A, L83Q
notes: IgG; subclass not restated; also called H260/L255
On to B9, for which the Kd in assay [3] is 0.03 nM.

B10: M600 (antibody, V domains shown)
VH: B4 VH
VL: B4 VL with W36F, T54A, L83Q
notes: IgG; subclass not restated; also called H239/L255
For the molecule B10, the Kd in [3] came out at 0.049 nM.

B11: M703 (antibody, V domains shown)
VH: B4 VH with G56A, N59A
VL: B4 VL with D34E, W36F, T54A, L83Q
notes: IgG; subclass not restated; also called H270/L267
Turning to B11, the equilibrium dissociation constant (Kd) in assay [3] worked out at 0.028 nM.

B12: M710 (antibody, V domains shown)
VH: B4 VH with G56A, S61A
VL: B4 VL with D34E, W36F, T54A, L83Q
notes: also called single-gene DNA ID 710
On to B12, for which, in assay [4], the Kd worked out at 0.019 nM, the koff came out at 4.88e-05 s⁻¹ and the kon is 2.55e+06 M⁻¹ s⁻¹. Further, the “NF-kB Assay IC50” value in assay [5] came out at 0.32 nM.

B13: M160 (antibody, human IgG4, V domains shown)
VH: QVQLVQSGAEVKKPGASVKVSCKASGYAFSSSWMNWVRQAPGQGLEWMGRIYSGDGDTNYNGKFKGRVTMTRDTSTSTVYMELSSLRSEDTAVYYCARSDYYGDYGFAYWGQGTLVTVSS
VL: B6 VL with E34D
notes: also called H196,L219
In the case of B13, in [6], binding was put at a Kd of 0.117 nM, the koff amounted to 0.00018 s⁻¹ and the kon is 1.6e+06 M⁻¹ s⁻¹. The Kd in assay [7] is 0.12 nM. Further, the “fold decrease in KD against the parental mAb M159” value (shortened to “fold decrease in KD”) in assay [8] was 20 fold. In [9], the Kd was determined as 0.108 nM, the koff amounted to 0.000223 s⁻¹ and the kon was 2.07e+06 M⁻¹ s⁻¹.

B14: M713 (antibody, V domains shown)
VH: B13 VH with G56A, N61A, G62Q
VL: B6 VL
notes: also called single-gene DNA ID 713
In assay [4], B14 came in with a Kd of 0.056 nM, a koff of 1.16e-05 s⁻¹ and a kon of 206000 M⁻¹ s⁻¹. The “NF-kB Assay IC50” value in [5] was determined as 0.296 nM.

B15: M166 (antibody, human IgG4, V domains shown)
VH: B13 VH
VL: B6 VL with G33H
notes: also called H196,L217
In assay [6], B15 showed a Kd of 0.126 nM, a koff of 0.000203 s⁻¹ and a kon of 1.62e+06 M⁻¹ s⁻¹. Further, binding in [7] was put at a Kd of 0.1 nM. Moreover, in assay [8], the “fold decrease in KD” value turned out to be 20 fold. In assay [9], the Kd turned out to be 0.127 nM, the koff was determined as 0.000234 s⁻¹ and the kon came to 1.84e+06 M⁻¹ s⁻¹.

B16: M157 (antibody, human IgG4, V domains shown)
VH: B13 VH with S53Q
VL: B6 VL with E34D, F36Y
notes: also called H197,L220
For B16, the Kd in [7] stood at 0.39 nM. The “fold decrease in KD” value in assay [8] came out at 6 fold.

B17: M149 (antibody, human IgG4, V domains shown)
VH: B13 VH with S53P
VL: B6 VL with E34D
notes: also called H25,L219
As to B17, in [7], the Kd amounted to 0.54 nM. For the same molecule, the “fold decrease in KD” value in assay [8] amounted to 4 fold.

B18: M155 (antibody, human IgG4, V domains shown)
VH: B13 VH with S53P
VL: B6 VL with G33H
notes: also called H25,L217
B18 came in with a Kd in assay [7] of 0.37 nM. Moreover, the “fold decrease in KD” value in assay [8] was determined as 6 fold.

B19: M158 (antibody, human IgG4, V domains shown)
VH: B13 VH
VL: B6 VL with E34D, F36Y
notes: also called H196,L220
In [6], B19 registered a Kd of 0.439 nM, a koff of 0.00066 s⁻¹ and a kon of 1.5e+06 M⁻¹ s⁻¹. In addition, binding in [7] was characterised by a dissociation constant (Kd) of 0.36 nM. Further, in assay [8], the “fold decrease in KD” value was found to be 6 fold.
